Test results taken from patent publication US20100173362A1 (published 2010).
Residue numbers refer to the chain shown, from its start.

B1: HE2B8-1 (antibody, human IgG1, kappa, V domains shown)
VH: QVQLVQPGAEVVKPGTSVKLSCKASGYTFTTYWMHWVNQAPGQGLEWIGEINPTNGHTNYNEKFKGKATLTVDKSTSTAYMELSSLRSEDTAVYYCARNYVGSIFDYWGQGTLLTVSS
VL: DIVMTQSPDSMAMSVGERVTLNCKASENVVSYVSWYQQKPGQSPKLLIYGASNRNTGVPDRFSGSGSATDFTLTISSVQAEDVADYHCGQSYNYPYTFGQGTKLEIKR
B2: HE2B8-4 (antibody, human IgG1, kappa, V domains shown)
VH: B1 VH with V12K, N38R, E62Q, K65Q, K67R
VL: B1 VL with M11L, V15L, N55E, T56S
B3: HE2B8-3 (antibody, human IgG1, kappa, V domains shown)
VH: B1 VH with V12K, N38R, E62Q, K65Q, K67R
VL: B1 VL
B4: HE2B8-2 (antibody, human IgG1, kappa, V domains shown)
VH: B1 VH
VL: B1 VL with M11L, V15L, N55E, T56S
B5: 2B8 (antibody, mouse IgG1, kappa)
heavy: QVQLQQPGAELVKPGTSVKLSCKASGYTFTTYWMHWVNQRPGQGLEWIGEINPTNGHTNYNEKFKSKATLTVDKSSSTAYMQLSSLTSEDSAVYYCARNYVGSIFDYWGQGTTLTVSSAKTTPPSVYPLAPGSAAQTNSMVTLGCLVKGYFPEPVTVTWNSGSLSSGVHTFPAVLQSDLYTLSSSVTVPSSTWPSETVTCNVAHPASSTKVDKKIVPRDCGCKPCICTVPEVSSVFIFPPKPKDVLTITLTPKVTCVVVDISKDDPEVQFSWFVDDVEVHTAQTQPREEQFNSTFRSVSELPIMHQDWLNGKEFKCRVNSAAFPAPIEKTISKTKGRPKAPQVYTIPPPKEQMAKDKVSLTCMITDFFPEDITVEWQWNGQPAENYKNTQPIMDTDGSYFVYSKLNVQKSNWEAGNTFTCSVLHEGLHNHHTEKSLSHSPGK
light: NIVMTQSPKSMSMSVGERVTLSCKASENVVSYVSWYQQKPAQSPKLLIYGASNRNTGVPDRFTGSGSATDFTLTISSVRAEDLADYHCGQSYNYPYTFGGGTRLEIKRADAAPTVSIFPPSSEQLTSGGASVVCFLNNFYPKDINVKWKIDGSERQNGVLNSWTDQDSKDSTYSMSSTLTLTKDEYERHNSYTCEATHKTSTSPIVKSFNRNEC
notes: also called murine 2B8; mouse 2B8
B6: sh2B8-9 (G1m(3)) (antibody, human IgG1, kappa)
heavy: not shown
light: DIQMTQSPSSLSASVGDRVTITCKASENVVSYVSWYQQKPGKAPKLLIYGASNRNTGVPSRFSGSGSGTDFTLTISSLQPEDFATYYCGQSYNYPYTFGQGTKLEIKRTVAAPSVFIFPPSDEQLKSGTASVVCLLNNFYPREAKVQWKVDNALQSGNSQESVTEQDSKDSTYSLSSTLTLSKADYEKHKVYACEVTHQGLSSPVTKSFNRGEC
notes: superhumanized 2B8, human IgG1 G1m(3) allotype (allele 2), kappa Km(3) (allele 2), made in 293T cells

How the values were obtained:
[1] = molecular target: T1, recombinant human HGF (R&D Systems, Catalog No. 294-HGN-025) (human, UniProt P14210 32-728); experiment: cell-based or functional assay
T1 sequence (P14210 32-728 limits assumed): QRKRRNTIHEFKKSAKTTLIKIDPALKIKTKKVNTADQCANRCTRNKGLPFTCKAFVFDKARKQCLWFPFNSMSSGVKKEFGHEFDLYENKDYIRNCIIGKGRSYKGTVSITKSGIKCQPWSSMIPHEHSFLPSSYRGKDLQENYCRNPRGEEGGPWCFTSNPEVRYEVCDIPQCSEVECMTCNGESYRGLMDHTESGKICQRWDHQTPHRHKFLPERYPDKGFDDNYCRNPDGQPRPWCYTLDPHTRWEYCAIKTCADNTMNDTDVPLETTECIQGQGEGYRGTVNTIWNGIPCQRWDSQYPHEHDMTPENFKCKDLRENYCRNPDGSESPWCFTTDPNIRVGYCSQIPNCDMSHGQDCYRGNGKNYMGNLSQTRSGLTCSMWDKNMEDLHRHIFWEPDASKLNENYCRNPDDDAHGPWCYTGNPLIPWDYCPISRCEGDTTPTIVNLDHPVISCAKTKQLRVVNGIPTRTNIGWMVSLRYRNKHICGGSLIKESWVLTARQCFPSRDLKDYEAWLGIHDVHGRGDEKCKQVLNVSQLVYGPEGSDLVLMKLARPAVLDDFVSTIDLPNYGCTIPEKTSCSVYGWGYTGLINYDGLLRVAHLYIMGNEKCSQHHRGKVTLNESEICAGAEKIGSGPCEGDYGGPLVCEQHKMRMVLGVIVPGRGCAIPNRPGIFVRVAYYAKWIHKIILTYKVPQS

[2] = molecular target: T1, recombinant human HGF (R&D Systems, …); experiment: SPR (BIAcore), KD at 25 C against KD at 37 C; upper end fits 2B8 in Table 19
Procedure: (§1) The antibodies were captured in an individual flow cell at a flow rate of 10 μL/min. Injection time was variable for each antibody to yield approximately 20 RU of antibody captured for each cycle. […] The dissociation phase was monitored for 15 or 90 minutes, depending on concentration. The surface of mouse anti-human immunoglobulins sensor chips was then regenerated with 10 mM Glycine-HCl, pH 2.2 (BIAcore, Catalog No. BR-1003-54) injected for 3 minutes at a flow rate of 60 μL/min before another cycle was initiated. The surface of rabbit anti-mouse immunoglobulins sensor chips was regenerated with 10 mM Glycine-HCl, pH 1.7 (BIAcore, Catalog No. BR-1003-54) injected for 3 minutes at a flow rate of 60 μL/min before another cycle was initiated.

[3] = molecular target: T1, recombinant human HGF (R&D Systems, …); experiment: SPR (BIAcore), KD at 25 C against KD at 37 C; lower end fits sh2B8-9 in Table 19
Procedure: as §1

| Binder | HGF-stimulated c-Met phosphorylation in PC-3 cells, Average of Two Trials [1] [nM] | fold smaller KD at 37° C. than at 25° C. [2] [fold] | fold smaller KD at 37° C. than at 25° C. [3] [fold] |
| --- | --- | --- | --- |
| B1 | 0.8 | – | – |
| B2 | 0.75 | – | – |
| B3 | 0.79 | – | – |
| B4 | 0.88 | – | – |
| B5 | 0.91 | 1.4 to 3 | – |
| B6 | 0.93 | – | 1.4 to 3 |
